Reference: PMC6751061

Molecular target: T1, LexA (Bacillus subtilis 3610) (UniProt P31080)
T1 sequence: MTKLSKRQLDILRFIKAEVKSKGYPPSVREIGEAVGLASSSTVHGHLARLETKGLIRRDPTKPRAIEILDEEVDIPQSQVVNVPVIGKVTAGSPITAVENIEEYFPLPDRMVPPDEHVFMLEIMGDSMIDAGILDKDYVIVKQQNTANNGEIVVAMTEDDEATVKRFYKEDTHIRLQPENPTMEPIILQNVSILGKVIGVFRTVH
Assay: EMSA
Conditions: EMSA: 4 nM 32P probe, LexA 1-500 nM, binding buffer as printed (likely 5x stock): 100 mM HEPES pH 7.5, 100 mM Tris-HCl, 50% glycerol, 500 mM NaCl, 10 mM EDTA …

Row | Sequence | binding | binding signal (fold lower affinity)
1 | CCTGACGATCACTCATTCTATTTTTTCCTCCTTTATGTTACCACTACATATACTATACCCTGTTTGAAGGGATTTGCCAAGAAAAAAGCGAACGCATATTCGGATTTTTTCTTGGCGTGATTCCTATCAAAATATCATAATGTATCAGAGAAATCATGTTTTCTTAGGAGGATAATGTGCTG (double strand) [PrecA] | binds | 
2 | AGGAGGGATCCTCTATATTGCTATTTCATGTTGGTGGATACAAGTAAAACCAAAATTTCCATATCCATCAGACTTAATGATTTTATCTAGAGAAATAGAAACGTAAACGAAAAAAATATTATTTTTTTAACTTTTTGTTTGAGCCTTTTTACAGATTGGAAGTCTTCAGAATAGGTCTTTTTTGGTAGTACTTACAATAATTATTATATTACATAAGTACTAGATCGTACACGAATTCCTCCT (double strand) [PsigNDN] |  | 500
